According to patent US10500249B2, “Compositions and methods for preventing or treating diseases, conditions, or processes characterized by aberrant fibroblast proliferation and extracellular matrix deposition” (MOERAE MATRIX, INC., priority 2014, dated 2019):

What was measured:
Assay in all cases: Kinase Profiling Assay
Format in all cases: biochemical
Conditions in all cases: 100 μM
MST1 (h) = molecular target: T1, MST1 (h) (Homo sapiens, UniProt Q13043)
T1 construct: purchased Millipore
T1 sequence (Q13043 1-487): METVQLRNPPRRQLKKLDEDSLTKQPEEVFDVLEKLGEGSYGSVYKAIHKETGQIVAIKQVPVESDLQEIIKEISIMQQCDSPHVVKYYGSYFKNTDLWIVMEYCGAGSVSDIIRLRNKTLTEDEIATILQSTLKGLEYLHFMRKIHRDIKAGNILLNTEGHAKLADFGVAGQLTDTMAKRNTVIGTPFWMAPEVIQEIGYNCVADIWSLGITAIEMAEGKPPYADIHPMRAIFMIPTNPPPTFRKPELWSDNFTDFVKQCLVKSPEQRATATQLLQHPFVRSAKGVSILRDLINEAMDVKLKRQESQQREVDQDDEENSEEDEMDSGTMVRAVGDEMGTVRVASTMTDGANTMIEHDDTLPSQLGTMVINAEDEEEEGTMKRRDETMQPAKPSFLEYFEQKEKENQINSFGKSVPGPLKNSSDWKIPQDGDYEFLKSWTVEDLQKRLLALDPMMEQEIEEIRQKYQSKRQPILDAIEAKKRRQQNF
Method in brief: (§1)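 Radiometric filter-binding format: cationic substrate takes up labeled phosphate from ATP unless the inhibitor peptide blocks the kinase. Substrate bound to an anionic filter, scintillation-counted, normalized to 100% activity control. Duplicates; part of a 266-kinase selectivity panel for MK2 peptides.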

Mer (h) = molecular target: T2, Mer (h) (Homo sapiens, UniProt Q12866)
T2 sequence (Q12866 21-999): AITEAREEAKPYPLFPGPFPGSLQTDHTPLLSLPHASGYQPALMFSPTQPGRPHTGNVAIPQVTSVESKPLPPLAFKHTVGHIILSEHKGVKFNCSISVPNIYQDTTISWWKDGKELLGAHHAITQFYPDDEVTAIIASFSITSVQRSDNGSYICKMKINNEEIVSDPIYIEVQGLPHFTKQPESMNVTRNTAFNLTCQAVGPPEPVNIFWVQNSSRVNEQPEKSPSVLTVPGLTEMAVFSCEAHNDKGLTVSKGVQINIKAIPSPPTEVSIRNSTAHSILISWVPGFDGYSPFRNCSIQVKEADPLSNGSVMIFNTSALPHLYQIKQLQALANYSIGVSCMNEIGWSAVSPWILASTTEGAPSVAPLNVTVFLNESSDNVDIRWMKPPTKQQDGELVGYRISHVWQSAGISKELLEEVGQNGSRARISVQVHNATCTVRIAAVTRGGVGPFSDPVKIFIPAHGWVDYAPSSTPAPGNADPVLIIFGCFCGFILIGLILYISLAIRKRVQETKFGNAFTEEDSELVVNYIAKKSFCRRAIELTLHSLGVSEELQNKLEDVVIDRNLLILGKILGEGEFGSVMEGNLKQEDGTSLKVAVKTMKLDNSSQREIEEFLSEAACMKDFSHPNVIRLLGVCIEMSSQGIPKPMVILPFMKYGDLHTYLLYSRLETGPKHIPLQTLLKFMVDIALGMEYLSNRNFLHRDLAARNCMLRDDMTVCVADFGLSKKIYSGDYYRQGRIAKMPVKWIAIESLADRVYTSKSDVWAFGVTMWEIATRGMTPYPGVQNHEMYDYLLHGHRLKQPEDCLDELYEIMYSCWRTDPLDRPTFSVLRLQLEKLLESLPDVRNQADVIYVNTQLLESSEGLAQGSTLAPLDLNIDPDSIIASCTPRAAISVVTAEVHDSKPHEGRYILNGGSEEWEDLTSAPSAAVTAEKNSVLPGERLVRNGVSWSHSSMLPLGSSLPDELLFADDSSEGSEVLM
Method in brief: as §1

IRAK1 (h) = molecular target: T3, IRAK1 (h) (Homo sapiens, UniProt P51617)
T3 construct: purchased Millipore
Method in brief: as §1

SAPK2b (h) = SAPK2b (h) (Homo sapiens, UniProt Q15759)
Method in brief: as §1

NEK7 (h) = molecular target: T4, NEK7 (h) (Homo sapiens, UniProt Q8TDX7)
T4 construct: purchased Millipore
Method in brief: as §1

Src(T341M) (h) = Src(T341M) (h) (Homo sapiens, UniProt P12931, T341M)
Method in brief: as §1

Arg (h) = Arg (h) (Homo sapiens, UniProt P42684)
Method in brief: as §1

MELK (h) = MELK (h) (Homo sapiens, UniProt Q14680)
Method in brief: as §1

MARK1 (h) = MARK1 (h) (Homo sapiens, UniProt Q9P0L2)
Method in brief: as §1

CK1δ (h) = molecular target: T5, CK1δ (h) (Homo sapiens, UniProt P48730)
T5 construct: purchased Millipore
Method in brief: as §1

mTOR (h) = molecular target: T6, mTOR (h) (Homo sapiens, UniProt P42345)
T6 construct: purchased Millipore
Method in brief: as §1

PDGFRβ (h) = molecular target: T7, PDGFRβ (h) (Homo sapiens, UniProt P09619)
T7 construct: purchased Millipore
Method in brief: as §1

Abl (Q252H) (h) = Abl (Q252H) (h) (Homo sapiens, UniProt P00519, Q252H)
Method in brief: as §1

MARK1 (h), sequence (Q9P0L2 whole entry): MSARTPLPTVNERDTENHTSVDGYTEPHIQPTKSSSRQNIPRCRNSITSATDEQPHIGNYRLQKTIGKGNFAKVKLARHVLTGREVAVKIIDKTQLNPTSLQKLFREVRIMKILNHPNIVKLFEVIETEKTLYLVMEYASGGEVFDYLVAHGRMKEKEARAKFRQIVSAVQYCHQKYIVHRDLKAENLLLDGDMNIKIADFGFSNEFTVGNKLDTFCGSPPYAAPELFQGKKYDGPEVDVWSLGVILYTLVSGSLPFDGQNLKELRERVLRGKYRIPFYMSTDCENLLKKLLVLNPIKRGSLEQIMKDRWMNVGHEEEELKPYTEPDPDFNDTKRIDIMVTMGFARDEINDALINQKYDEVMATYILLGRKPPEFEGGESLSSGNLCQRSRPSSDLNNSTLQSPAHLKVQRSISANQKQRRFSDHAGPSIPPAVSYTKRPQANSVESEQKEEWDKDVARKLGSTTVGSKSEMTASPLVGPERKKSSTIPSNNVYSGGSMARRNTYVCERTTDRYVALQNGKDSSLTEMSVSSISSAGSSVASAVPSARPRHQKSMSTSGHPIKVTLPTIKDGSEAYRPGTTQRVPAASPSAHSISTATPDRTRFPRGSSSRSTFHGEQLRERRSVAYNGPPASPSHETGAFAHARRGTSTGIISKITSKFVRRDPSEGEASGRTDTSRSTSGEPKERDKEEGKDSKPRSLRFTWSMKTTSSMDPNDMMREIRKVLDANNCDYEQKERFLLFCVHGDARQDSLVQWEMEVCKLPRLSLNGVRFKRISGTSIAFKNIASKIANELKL
T4 sequence (Q8TDX7 whole entry): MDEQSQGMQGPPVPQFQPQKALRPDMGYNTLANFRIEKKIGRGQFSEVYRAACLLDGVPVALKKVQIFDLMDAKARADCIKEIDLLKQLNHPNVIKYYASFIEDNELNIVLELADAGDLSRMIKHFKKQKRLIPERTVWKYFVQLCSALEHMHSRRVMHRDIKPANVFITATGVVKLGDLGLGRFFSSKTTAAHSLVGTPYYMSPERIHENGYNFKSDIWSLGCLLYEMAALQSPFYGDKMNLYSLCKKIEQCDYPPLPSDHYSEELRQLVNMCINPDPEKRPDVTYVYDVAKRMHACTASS
SAPK2b (h), sequence (Q15759 whole entry): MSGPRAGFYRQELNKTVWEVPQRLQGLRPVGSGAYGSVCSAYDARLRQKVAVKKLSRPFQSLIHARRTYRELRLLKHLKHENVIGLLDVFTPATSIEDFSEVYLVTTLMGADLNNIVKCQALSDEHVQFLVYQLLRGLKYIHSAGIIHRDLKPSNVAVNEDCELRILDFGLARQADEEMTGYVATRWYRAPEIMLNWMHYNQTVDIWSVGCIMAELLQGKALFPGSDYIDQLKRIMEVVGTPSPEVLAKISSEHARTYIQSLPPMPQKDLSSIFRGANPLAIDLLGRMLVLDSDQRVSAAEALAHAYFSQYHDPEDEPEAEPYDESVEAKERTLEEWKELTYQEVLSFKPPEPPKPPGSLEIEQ
MELK (h), sequence (Q14680 whole entry): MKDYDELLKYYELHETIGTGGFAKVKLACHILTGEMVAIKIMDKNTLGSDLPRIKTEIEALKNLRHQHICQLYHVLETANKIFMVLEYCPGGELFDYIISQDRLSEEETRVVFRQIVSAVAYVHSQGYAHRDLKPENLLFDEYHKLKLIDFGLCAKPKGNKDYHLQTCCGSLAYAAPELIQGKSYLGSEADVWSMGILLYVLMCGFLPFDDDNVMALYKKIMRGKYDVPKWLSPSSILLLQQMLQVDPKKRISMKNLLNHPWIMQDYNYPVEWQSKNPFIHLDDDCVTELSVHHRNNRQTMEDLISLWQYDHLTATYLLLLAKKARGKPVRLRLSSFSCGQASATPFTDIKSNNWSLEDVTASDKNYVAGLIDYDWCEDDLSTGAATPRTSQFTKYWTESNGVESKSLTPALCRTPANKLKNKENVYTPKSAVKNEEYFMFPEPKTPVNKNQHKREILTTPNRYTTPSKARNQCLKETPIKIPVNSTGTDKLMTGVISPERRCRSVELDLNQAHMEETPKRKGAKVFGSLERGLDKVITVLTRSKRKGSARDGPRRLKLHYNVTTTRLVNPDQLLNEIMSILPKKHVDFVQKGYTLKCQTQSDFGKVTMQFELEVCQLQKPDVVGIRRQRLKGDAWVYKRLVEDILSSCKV
Arg (h), sequence (P42684 whole entry): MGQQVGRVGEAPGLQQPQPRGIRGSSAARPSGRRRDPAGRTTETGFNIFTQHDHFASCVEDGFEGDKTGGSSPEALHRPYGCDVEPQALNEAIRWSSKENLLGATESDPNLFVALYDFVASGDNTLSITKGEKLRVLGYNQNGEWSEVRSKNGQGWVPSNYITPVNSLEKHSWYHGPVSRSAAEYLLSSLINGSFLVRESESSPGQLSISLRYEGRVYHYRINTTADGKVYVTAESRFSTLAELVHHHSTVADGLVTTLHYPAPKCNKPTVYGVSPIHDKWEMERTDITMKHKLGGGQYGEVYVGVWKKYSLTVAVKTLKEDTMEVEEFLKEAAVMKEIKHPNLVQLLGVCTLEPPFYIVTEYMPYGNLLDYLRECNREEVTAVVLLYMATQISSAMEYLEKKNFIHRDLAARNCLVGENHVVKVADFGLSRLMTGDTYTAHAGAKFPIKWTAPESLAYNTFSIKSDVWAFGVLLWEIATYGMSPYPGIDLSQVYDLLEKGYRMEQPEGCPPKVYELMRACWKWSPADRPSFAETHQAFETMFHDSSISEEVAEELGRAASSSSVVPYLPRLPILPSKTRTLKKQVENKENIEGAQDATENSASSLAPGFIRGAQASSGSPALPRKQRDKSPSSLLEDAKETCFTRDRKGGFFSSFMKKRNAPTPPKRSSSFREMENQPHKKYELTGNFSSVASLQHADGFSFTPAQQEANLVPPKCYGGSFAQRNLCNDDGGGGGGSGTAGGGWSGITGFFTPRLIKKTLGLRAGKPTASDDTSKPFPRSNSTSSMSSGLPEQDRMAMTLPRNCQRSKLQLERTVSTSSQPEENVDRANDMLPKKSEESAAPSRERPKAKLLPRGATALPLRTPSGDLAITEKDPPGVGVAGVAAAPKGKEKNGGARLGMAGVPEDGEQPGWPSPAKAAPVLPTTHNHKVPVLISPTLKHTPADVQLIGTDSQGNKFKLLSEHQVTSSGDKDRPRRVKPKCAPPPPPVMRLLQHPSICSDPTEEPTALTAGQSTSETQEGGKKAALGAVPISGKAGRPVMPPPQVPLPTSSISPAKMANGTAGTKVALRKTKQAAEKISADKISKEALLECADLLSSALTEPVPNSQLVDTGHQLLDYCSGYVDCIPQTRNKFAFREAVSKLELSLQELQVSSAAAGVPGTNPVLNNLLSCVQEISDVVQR
T3 sequence (P51617 whole entry): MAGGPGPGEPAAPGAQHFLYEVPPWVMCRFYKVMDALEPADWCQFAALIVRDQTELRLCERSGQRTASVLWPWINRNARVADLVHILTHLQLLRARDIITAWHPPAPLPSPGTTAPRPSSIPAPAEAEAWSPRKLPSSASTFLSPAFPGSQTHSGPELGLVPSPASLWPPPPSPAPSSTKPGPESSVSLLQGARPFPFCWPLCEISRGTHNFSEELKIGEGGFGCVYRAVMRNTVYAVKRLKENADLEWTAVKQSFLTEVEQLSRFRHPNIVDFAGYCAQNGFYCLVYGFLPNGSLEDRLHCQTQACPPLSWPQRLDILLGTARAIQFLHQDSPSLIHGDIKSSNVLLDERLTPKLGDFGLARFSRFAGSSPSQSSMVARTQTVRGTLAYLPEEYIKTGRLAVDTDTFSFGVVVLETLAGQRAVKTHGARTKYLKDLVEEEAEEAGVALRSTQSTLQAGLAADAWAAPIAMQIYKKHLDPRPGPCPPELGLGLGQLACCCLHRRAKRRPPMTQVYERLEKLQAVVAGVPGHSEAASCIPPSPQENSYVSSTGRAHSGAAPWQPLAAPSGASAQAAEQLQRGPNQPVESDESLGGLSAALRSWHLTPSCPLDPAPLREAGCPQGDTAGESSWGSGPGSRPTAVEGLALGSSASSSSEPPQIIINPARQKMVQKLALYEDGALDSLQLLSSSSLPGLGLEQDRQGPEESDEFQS
T5 sequence (P48730 whole entry): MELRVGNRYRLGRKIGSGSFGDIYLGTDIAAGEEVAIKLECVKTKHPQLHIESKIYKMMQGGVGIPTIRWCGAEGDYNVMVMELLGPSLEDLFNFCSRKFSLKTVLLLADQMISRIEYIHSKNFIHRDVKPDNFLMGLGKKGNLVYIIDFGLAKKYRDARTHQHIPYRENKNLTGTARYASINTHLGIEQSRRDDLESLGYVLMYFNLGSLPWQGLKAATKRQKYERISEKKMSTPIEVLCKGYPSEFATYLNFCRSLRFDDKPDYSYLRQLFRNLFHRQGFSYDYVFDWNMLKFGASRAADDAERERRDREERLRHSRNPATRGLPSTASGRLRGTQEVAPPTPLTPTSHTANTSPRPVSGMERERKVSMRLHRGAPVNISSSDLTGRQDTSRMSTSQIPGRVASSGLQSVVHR

Sequence	% activity (MST1 (h)) [%]	% activity (Mer (h)) [%]	% activity (IRAK1 (h)) [%]	% activity (SAPK2b (h)) [%]	% activity (NEK7 (h)) [%]	% activity (Src(T341M) (h)) [%]	% activity (Arg (h)) [%]	% activity (MELK (h)) [%]	% activity (MARK1 (h)) [%]	% activity (CK1δ (h)) [%]	% activity (mTOR (h)) [%]	% activity (PDGFRβ (h)) [%]	% activity (Abl (Q252H) (h)) [%]
FAKLAARLYRKALARQLGVAA [MMI-0300]	14	52	95	81	84	70	72	16	132	92	91	81	82
HRRIKAWLKKIKALARQLGVAA (Mammalian) [MMI-0500]	3	17	5	42	89	59	22	0	110	78	135	40	40
KAFAKLAARLYRKALARQLGVAA [MMI-0400]	6	50	93	82	87	76	84	17	120	93	93	53	98
YARAAARQARAKALNRQLGVA (Mammalian) [MMI-0200]	72	90	101	95	96	56	82	59		92	110	137	
